Reference: paper PMC6778148 (Nature Communications, 2019)
Values belong to the binder of their own block, whether it stands above or below them. Primed or numbered codes have the meaning given here. Ends that are not written are not given here. FITC′ = fluorescein isothiocyanate label; TTDS = PEG linker

B1: SAP102 tandem PDZ domains 1 and 2 (SAP102-12), from pET-NO (domain or fragment, rat)
chain: FKYEEIVLERGNSGLGFSIAGGIDNPHVPDDPGIFITKIIPGGAAAMDGRLGVNDCVLRVNEVDVSEVVHSRAVEALKEAGPVVRLVVRRRQPPPETIMEVNLLKGPKGLGFSIAGGIGNQHIPGDNSIYITKIIEGGAAQKDGRLQIGDRLLAVNNTNLQDVRHEEAVASLKNTSDMVYLKVAKPGSL
notes: first two PDZ domains of rat SAP102, residues 145-333; also called NO-SAP102-12
B2: biotinylated Xph15 [S63K]-(GGS)12-ETWV, from pbIG (designed binder)
chain: SSVSSVPTKLEVVAATPTSLLISWDAGPRNVSYYRITYGETGGNSPVQEFTVPGSSSTATISGLKPGVDYTITVYASGHVSTLMTPISINYRTLEGGSGGSGGSGGSGGSGGSGGSGGSGGSGGSGGSGGSGTETWV
modifications: biotin on the AviTag (BirA)
B3: biotinylated Xph20 [S63K]-(GGS)12-ETWV, from pbIG (designed binder)
chain: SSVSSVPTKLEVVAATPTSLLISWDAVAKNVKVGYYRITYGETGGNSPVQEFTVPGSSSTATISGLKPGVDYTITVYANGVLSKMVLPISINYRTLEGGSGGSGGSGGSGGSGGSGGSGGSGGSGGSGGSGGSGTETWV
modifications: biotin on the AviTag (BirA)
notes: also called Xph20-ETWV; not shown: AviTag (biotin acceptor peptide), N-terminal, kept
B5: biotinylated Xph18 [S63K]-(GGS)12-ETWV, from pbIG (designed binder)
chain: SSVSSVPTKLEVVAATPTSLLISWDAHSRMAWVNYYRITYGETGGNSPVQEFTVPGSSSTATISGLKPGVDYTITVYANGGGFRRGMAPISINYRTLEGGSGGSGGSGGSGGSGGSGGSGGSGGSGGSGGSGGSGTETWV
modifications: biotin on the AviTag (BirA)
B6: PSD-95 PDZ domain 2 (PSD-95-2), as used for fluorescence polarisation (domain or fragment, rat)
chain: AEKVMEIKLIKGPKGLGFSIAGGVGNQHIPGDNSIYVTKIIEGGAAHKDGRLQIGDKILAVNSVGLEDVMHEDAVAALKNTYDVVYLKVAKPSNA
notes: also called PSD-95 second PDZ domain; source: E. coli, purified

How the values were obtained:
Settings in all cases: both partners purified
[1] = target: B2; assay: SPR; Biacore T200, single cycle kinetics at higher analyte concentrations (up to 35 µM); biotinylated Xph15/18/20-ETWV captured (ligand), tandem PDZ domains as analyte; steady state analysis, one site binding (hyperbola)
[2] = target: B5; assay: as above
[3] = target: B3; assay: as above
[4] = target: T1, PSD-93 tandem PDZ domains 1 and 2 (PSD-93-12), from pET-NO (rat); assay: as above
T1 construct: first two PDZ domains of rat PSD-93, residues 93-282; also called NO-PSD-93-12
T1 sequence (chain, as listed by the source): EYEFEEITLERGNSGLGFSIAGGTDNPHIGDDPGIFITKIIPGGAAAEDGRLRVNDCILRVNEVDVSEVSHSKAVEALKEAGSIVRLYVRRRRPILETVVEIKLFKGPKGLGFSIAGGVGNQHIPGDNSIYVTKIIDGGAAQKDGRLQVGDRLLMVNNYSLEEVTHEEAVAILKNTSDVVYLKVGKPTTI

[5] = target: T2, PSD-95 tandem PDZ domains 1 and 2 (PSD-95-12), from pET-NO (rat); assay: SPR; Biacore T200, single cycle kinetics; biotinylated Xph-motif fusion captured on a CAP chip (ligand), tandem PDZ domains as analyte; 25 °C; PBS with 500 mM NaCl pH 7.4, 0.1% Tween 20; global 1:1 fit (kinetics analysis)
T2 construct: first two PDZ domains of rat PSD-95, residues 61-249; also called NO-PSD-95-12; not shown: His8, N-terminal, kept

[6] = target: T2, PSD-95 tandem PDZ domains 1 and 2 …; assay: pull-down; competitive pull-down: streptavidin beads with 120 pmol biotinylated [Stg15]2, 180 pmol tandem PDZ domains, then 0-50 (100) equivalents of Xph20-ETWV or Xph0-ETWV; PBS with 500 mM NaCl pH 7.4, Tween 20, 0.5% BSA; SDS-PAGE, colloidal blue, densitometry; One site - Fit Ki
[7] = target: T3, SAP97 tandem PDZ domains 1 and 2 (SAP97-12), from pET-NO (rat); assay: as above
T3 construct: first two PDZ domains of rat SAP97, residues 220-408; also called NO-SAP97-12; not shown: His8, N-terminal, kept

[8] = target: B1; assay: as above
[9] = target: T1, PSD-93 tandem PDZ domains 1 and 2 …; assay: as above
[10] = target: T4, fluorescein-labelled monovalent stargazin peptide; assay: fluorescence polarisation; direct titration: 50 nM fluorescein-labelled stargazin ligand (divalent or monovalent) against increasing concentrations of PDZ domains; apparent KD
T4 chain: {FITC′-TTDS}-DSLHANTANRRTTPV

[11] = target: B6; assay: fluorescence polarisation; competitive titration: ETWV or stargazin monovalent peptide against the complex of 50 nM FITC monovalent stargazin peptide with 24 µM PSD-95-2
[12] = target: B6; assay: as above

Binder: B1
Kd [1]: 9.8 µM
Kd [2]: 4.2 µM
Kd [3]: 9.9 µM

Binder: B2
Kd [4]: 8.4 µM

Binder: B3
Kd [5]: 0.089 nM
koff [5]: 0.00052 s⁻¹
kon [5]: 8.7e+06 M⁻¹ s⁻¹
Kd [4]: 7.5 µM

Ki [6]: 0.0365 µM
Ki [7]: 0.901 µM
Ki [8]: 1.44 µM
Ki [9]: 0.261 µM
B4: Xph20 [S63K]-(GGS)12-ETWV with N-terminal His10, from pET-IG (designed binder)
chain: SSVSSVPTKLEVVAATPTSLLISWDAVAKNVKVGYYRITYGETGGNSPVQEFTVPGSSSTATISGLKPGVDYTITVYANGVLSKMVLPISINYRTLEGGSGGSGGSGGSGGSGGSGGSGGSGGSGGSGGSGGSGTETWV
notes: also called Xph20-ETWV; pIG-Xph20-ETWV; not shown: His10, N-terminal, kept

Binder: B5
Kd [4]: 3.2 µM

Binder: B6
Kd [10]: 16 µM

Ki [11]: 8.8 µM
Ki [12]: 8.6 µM
Binder: Ac-DSLHANTANRRTTPV [acetylated monovalent stargazin peptide]
